The target of the assay is IL-2 receptor on the surface of human lymphocytes (T cells, NK cells, Treg cells from PBMC) (human). Put plainly: cell-based or functional assay.

“human wild-type IL-2 (rhIL-2, R&D systems, Catalog No. 202-IL) (from UniProt P60568 21-153) (ligand)” displayed a CD25-pSTAT5 EC50 (CD8+ CD25- T cells) of 0.47 nM; an EC50 of pSTAT5, CD4+CD25- T cells of 0.102 nM; an EC50 of pSTAT5, CD8+ T cells of 1.69 nM; an EC50 of pSTAT5, NK cells of 24.2 pM. The same substance registered an EC50 of pSTAT5, Treg cells of 0.388 pM.

Source of the values: patent US20230145766A1.
